In the RNAGym collection of RNA variant scans (doi:10.7554/elife.80360) one finds self-cleavage data, which are given here for 167 variants.

The labels stand for the following.
B1: HDV Ribozyme (parent)
chain: GGCCGGCAUGGUCCCAGCCUCCUCGCUGGCGCCGGCUGGGCAACAUUCCGAGGGGACCGUCCCCUCGGUAAUGGCGAAUGGGACCCA

This data set covers variants of B1. The experiment in a line: self-cleavage, relative activity (ratio to wild type); higher = more cleavage; co-transcriptional.
Regarding C61U U69G, the self-cleavage is 0.864.
The result for U60G reads 0.978; that for C66U A71G, 0.909.
The result for C61G G76A reads 0.906; that for U60G C66G, 1.05; that for U65G U79C, 0.19.
The result for C62G C86A reads 0.752.
As for C62G C86U, the self-cleavage was 0.923.
For the variant C66G A87G, the self-cleavage is 1.06.
Then C66G A87C, with 0.857; and C66G A87U, with 0.853; and C64A U65C, with 0.831.
Take U60G A87U: the self-cleavage was 0.906.
Turning to C64U G80C, the self-cleavage is 0.158.
The result for G67A U72A reads 0.532; that for U65C G68C, 0.883.
Then C66G G76A, with 1.02.
C63G C64A: the self-cleavage was 0.862.
Then C63G C64U, with 0.753; and C63G A70G, with 0.76; and C63G A70U, with 0.564.
The result for U60C C64U reads 0.895; that for U60C A87U, 0.921.
The result for U60C A87G reads 1.03.
For the variant U65G C84A, the self-cleavage amounted to 1.04.
The result for G67C A83C reads 0.293.
Then C64A C85G, with 0.594.
For the variant C62G U65C, the self-cleavage was determined as 0.427.
Then C63U C75U, with 0.324.
Then U60G G68U, with 0.762; and C62G G76A, with 1.02; and C61G G82U, with 0.271.
Then C64G A83C, with 0.373; and C62U G81A, with 0.531; and C64A A87U, with 0.71.
C64G G67A: the self-cleavage was 0.356.
The result for U60G G76C reads 1.09; that for C62A G76C, 1.02; that for U65C G80C, 0.249.
The result for C62U C75U reads 0.173.
Then C64A G82C, with 0.199; and C61U C84A, with 0.992; and C61U C84G, with 0.589.
For the variant C61U A87G, the self-cleavage came to 0.933.
The result for C61U A87C reads 0.784; that for C62U A70C, 0.734.
The result for C62U A70U reads 0.831; that for U65C G73U, 0.554; that for U65C G73A, 0.746.
The result for C62G G67A reads 0.095.
As for U65A A87U, the self-cleavage was determined as 0.96.
The result for C63U A78G reads 0.755; that for C63U A78U, 0.287; that for C63U A78C, 0.237.
The result for C63A A83U reads 0.77; that for G67C A71U, 0.716; that for C62A G68C, 0.883.
The result for C63A G80C reads 0.332; that for G67A G81A, 0.302; that for C62A G74U, 0.367.
In the case of C62A G74A, the self-cleavage stood at 0.619.
The result for C66U A78G reads 0.69; that for C66U A78C, 0.178; that for C63U G68A, 0.973.
On to C64U U79C, for which the self-cleavage turned out to be 0.306.
In the case of C64U U79G, the self-cleavage was found to be 0.847.
Then C64A U69A, with 1.06.
The result for C64A U69G reads 1.15.
The result for C64G G76U reads 1.05; that for C64G G76C, 0.702.
As to C64U G73A, the self-cleavage was 0.81.
As for C64A C66G, the self-cleavage was found to be 0.489.
Then C64A C66A, with 0.573.
The result for C61U C63U reads 0.958.
For the variant G67C C75A, the self-cleavage came out at 0.0652.
With C61A G81C, the self-cleavage is 0.287.
Turning to C64G C86A, the self-cleavage came out at 0.946.
Then G67C A70G, with 0.712; and U65C A87C, with 1.09.
Then C66G A71U, with 1.01; and C66G A71G, with 1.05; and C66G A71C, with 1.03.
The result for U60G C61U reads 1.06; that for U60G C61A, 1.11.
Turning to U65G G67U, the self-cleavage worked out at 0.569.
Then U65G G67C, with 0.156; and C62A C85U, with 1.05.
The result for U65A C85U reads 0.791.
The result for U65A C85A reads 0.858.
Turning to C62U A77G, the self-cleavage came out at 0.831.
The result for U60G U79C reads 0.203; that for U65C A71C, 0.703; that for U65G U69C, 0.877.
For C62G G82U, the self-cleavage was found to be 0.0923.
Turning to C62U A83C, the self-cleavage came out at 0.359.
Then C62U A83U, with 0.318.
The result for U65G G82U reads 0.453; that for C63U U69C, 0.964; that for C64G C75G, 0.
Consider C61G A71G, for which the self-cleavage stood at 0.808.
The result for C61G A71U reads 0.997; that for C62G G81C, 0.208.
As to C62G C85A, the self-cleavage turned out to be 0.717.
Then C62G C85U, with 0.902.
The result for U60G A70U reads 0.969; that for C66A C85G, 0.918; that for U60G A71G, 0.831.
Then G67C A77C, with 0.227.
On to U60C C62A, for which the self-cleavage was 1.01.
Then C62G C84U, with 0.846; and C62G C84A, with 0.712; and C64A G73U, with 0.332.
The result for C64A G73A reads 0.385.
As for C62U A71U, the self-cleavage was found to be 1.05.
Regarding C61G G68U, the self-cleavage came out at 0.964.
Then U60G U69G, with 0.755; and G67A G82C, with 0.224.
The result for C64U A77G reads 1.01.
Then U65C A78C, with 0.293; and U60C C86G, with 0.982.
Turning to U65A A83U, the self-cleavage was found to be 0.539.
In the case of U60G G74C, the self-cleavage stood at 0.443.
Consider U60G G74A, for which the self-cleavage came out at 0.227.
The result for C66G A83U reads 0.415.
Then C66G A83G, with 0.72; and C64U A70U, with 1.01; and C66A A87C, with 1.
Regarding U65G A77U, the self-cleavage was determined as 0.554.
The result for C64G A71U reads 0.863; that for C61A A70C, 1.01.
The result for C61A A70U reads 1.17; that for C62A C75G, 0.0519; that for C63U A87U, 1.01.
Then C62A A71C, with 0.85.
With C62A A71G, the self-cleavage was found to be 1.03.
For C63G A83C, the self-cleavage amounted to 0.249.
Then C63G A83U, with 0.271; and U65C C86G, with 1.18.
Regarding U65C U79C, the self-cleavage worked out at 0.415.
The result for U65G A78G reads 0.957; that for U65G A78C, 0.119.
Turning to C62G C75U, the self-cleavage worked out at 0.189.
The result for C64U A87C reads 0.971; that for U60C G67C, 0.554.
Then U60C U65A, with 1.27; and C63G C85A, with 0.95; and G67A A77U, with 0.339.
For the variant U65A A70U, the self-cleavage came out at 1.14.
The result for C66G C84U reads 0.545; that for C66G C84G, 0.745; that for C61U A77C, 0.65.
For C63U C66A, the self-cleavage worked out at 0.978.
Take C61A G76U: the self-cleavage stood at 1.05.
Then U65C A77U, with 0.806; and C63G U65A, with 0.415; and C62A G80U, with 0.16.
Then C62G A70U, with 0.665; and C61U A78G, with 0.87; and C64G G68C, with 0.264.
Turning to C66U A87C, the self-cleavage is 0.875.
The result for C66U A87G reads 0.999; that for C64A C75G, 0.18.
The result for C64A C75A reads 0.237; that for C64A C75U, 0.332.
C61G C86U: the self-cleavage was determined as 0.772.
Then C61G C86G, with 0.941; and C61G C64U, with 0.755.
